Values quoted from earlier work as cited in PMC12071589.

Biological target: TROP2 (Homo sapiens) (UniProt P09758)
Sequence (P09758 27-274): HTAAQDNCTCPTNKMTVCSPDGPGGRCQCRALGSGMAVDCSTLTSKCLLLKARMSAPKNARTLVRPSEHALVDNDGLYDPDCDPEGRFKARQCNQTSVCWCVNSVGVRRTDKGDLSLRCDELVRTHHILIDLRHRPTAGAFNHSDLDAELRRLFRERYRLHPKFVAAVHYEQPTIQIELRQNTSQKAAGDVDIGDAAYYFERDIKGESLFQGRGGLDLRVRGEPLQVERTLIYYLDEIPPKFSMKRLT

Kd: 260 pM
Substance: sacituzumab
